In the supplement of paper PMC12042874:
± gives the uncertainty stated by the source.

experiment: amyloid nucleation score (Sup35N fusion, yeast selection) (log enrichment); library NNK3; higher = more nucleation; inactive = no reads after selection
Method in brief: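 Libraries of peptides of 20 random codons fused to Sup35N were expressed in psi-negative yeast and induced 24 hours with 100 μM copper sulfate. Selection was 7 days at 30°C on medium lacking adenine and uracil, and plasmid inserts were Illumina-sequenced before and after selection. Nucleation score is the DiMSum log enrichment of output over input reads, centred on the mode score of non-aggregating sequences, and sequences with under 100 input reads were left out.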

Substance | amyloid nucleation score
PYLAGWRSLIPFNTSLCSGC | inactive
PYNVSLFMLRMVSIFFVQHL | inactive
PYSIVSGPRIFYGCYHSFI | inactive
PYYNRGFCGYGFSQVMEVL | inactive
QAFDFTHHPFHDRSWNGHWS | inactive
QARRSIYSISECGGGI | 0.234 ± 0.33
QDFRLLSALRF | inactive
QEVAMRAISLSLPARWSVPC | inactive
QEWVRYYYFVLYFNYVNGSW | inactive
QFEHF | inactive
QFIINDSFYINQNNRRYSKV | inactive
QGGNAISRYKWDCIR | inactive
QGLPVSVSFVGEIYLLLF | 2.32 ± 0.053
QGNSRRSLINLHSLNKNILH | inactive
QGNWHYWCKDVRKLSLPKEL | inactive
QGSHRGMKITGISWTVLGYW | inactive
QGVVV | inactive
QISEFKDVLLCVCVKISLGR | 1.7 ± 0.09
QITRLPSNYVYETWSEKVFY | inactive
QKAYKYSDI | inactive
QKQFYGWVAESFARGATIPR | 0.871 ± 0.21
QLEYNYCDKLVT | inactive
QLHTDYPFGACLFSCDGLDM | inactive
QLVVRCPCYNETVG | inactive

Substance | amyloid nucleation score
QLYSHNRYTLGYTMLSRFVS | inactive
QMFSLTFIVMFLFFPSRGCR | inactive
QMKKLWFF | inactive
QMSFQSSYQVRLFLVPPFQW | 0.412 ± 0.23
QMSGMFTLVDWT | inactive
QMYSLWCKKCMFYDGCEGVS | inactive
QNHSNVGTFDDSA | inactive
QNRFDLPGMSQRSTHDRAPS | -0.03 ± 0.73
QPLHCK | inactive
QQCCTLVCWRRMI | inactive
QQSWFTIYDVILYR | inactive
QRDVDLMVSIGTPTSNRYET | inactive
QRISMIALDRFD | inactive
QRKVSWHAGYSA | inactive
QRLCCPRNL | inactive
QRMTLNLDRCPMSYWGSTIP | inactive
QRNMVSEGATRCLSTDFPCL | inactive
QRNNFLLTMVTCFDLKL | inactive
QRSEV | inactive
QSCVIVLKIGFWDVHSSMTF | 0.426 ± 0.19
QSFIRSFIVYVKDALGAHHG | inactive
QTHMTFYVCMFRGTCNGNMC | 2.1 ± 0.051
QVSFM | inactive
QWFAWARQWL | inactive

Substance | amyloid nucleation score
QWGSWE | inactive
QWIGISNRLLYKDWLNWRYE | inactive
QWILHNFTVGARPGPVRTKE | inactive
QWKVLLRACHRLEDALCCIS | inactive
QYANVGSCVCDRIIRCFYGW | inactive
QYCDSMTLINQPAAIRGLLW | inactive
QYDLDWFIGRSNARDGLTDW | inactive
QYFRLLTLISRPFKTHRGVG | inactive
QYLEAWRCTHFTVGALLLMG | inactive
QYLHAGGHVIVGTWYEVNMG | 1.36 ± 0.16
QYVCVRS | inactive
RACML | inactive
RAECSISSIIIYCAGRPSLI | 1.07 ± 0.098
RAFLL | inactive
RAICGMNFCNISHLT | 3.05 ± 0.067
RANLPRLFQNDHNSWLDCVA | inactive
RARGDTIK | inactive
RCDCLRRNGSLHSQFNVSGG | 1.02 ± 0.2
RCLEERH | inactive
RCLGLML | inactive
RCLTEA | inactive
RCMPRCALACTRLSPGRSVV | inactive
RCSLLRNIG | inactive
RCSWKTLPMYLMYCCTACHS | inactive

Substance | amyloid nucleation score
RCVLSNSNLCFKFFRVQTME | inactive
RCVRVIFSVMGDWVFISKNE | inactive
RCYKMLDLSILDIRYIVMLR | inactive
RCYYMAMVMYTLLPLLRAET | -0.074 ± 0.32
RDFRKSIYTCLEYYWHMVVT | inactive
RDISIFRFRYTRRSWWLSFG | inactive
RDMFIYKTCMKVCVQLPYII | inactive
RDMYLLLREHGKGTIGKPWG | inactive
RDPASGVSMCTIIIVKGYTI | 0.57 ± 0.2
RDSCFNIDFKEEVVRKVSMA | 0.827 ± 0.18
RDTGPPMFWREAVSRYR | inactive
RDWCSNLMYYDYPVTEGCDT | inactive
REFKY | inactive
RELVNSNALGNFLWETVCFS | inactive
REREF | inactive
RETLS | inactive
RFDESTRVCV | inactive
RFDIK | inactive
RFDWRLSCTGRNMVASLLFV | inactive
RFEFMGFSYPCHLTWLLVGY | inactive
RFEYMGNVMES | inactive
RFIGGTYH | inactive
RFIVCCKTGCVY | inactive
RFNSWRSCIWLM | inactive

Substance | amyloid nucleation score
RFQCWVWSQ | inactive
RFSWNENVGVDGQHLPEVER | inactive
RFSYSDTI | inactive
RFTDRCTLHFQMFVVLRAVI | inactive
RFVYRVNNRSKVLSEARMCI | inactive
RFWFWQPVVYIIRWIRVPLA | inactive
RFWMRKY | inactive
RFYGDM | inactive
RFYRCNYYRM | 2.17 ± 0.084
RFYVYIINHHAPVYWVSRYS | 2.59 ± 0.065
RGAIIFGKTMIYDSC | inactive
RGAVLLKNWL | inactive
RGCGVQMS | 0.882 ± 0.24
RGHNRRMYTWRVCRPSHHCK | inactive
RGIHEIGVMLKSVSQLE | inactive
RGKLFLSLLIVYFTLFLSVM | inactive
RGMWSFHGYWRTGKYMATGG | inactive
RGNIWIHKK | 0.404 ± 0.15
RGPVNCYYRISPRRPRHVSE | inactive
RGSMRPPSVSQMQCRYKDRF | -0.663 ± 1.1
RGVAVR | 1.89 ± 0.077
RHCGRALCDWLVIRWGSGYT | inactive
RHGFWSVSFVSRQFSNILSC | inactive
RHLLTISKPEMMCGDADEYR | inactive

Substance | amyloid nucleation score
RHQDYLHADGLNMAISITRI | inactive
RHRQSPYIINSVVIFGNQGT | 2.5 ± 0.067
RHSLMRDYYNFLMLDCTE | inactive
RHSNDCMNFEVIILIDSCLE | inactive
RHSNMSRIPMVLNKEKPGTR | inactive
RHTPDSLQYFLVFKVSYGFL | inactive
RHVFFLC | inactive
RIDTRNDRSNYR | inactive
RIHVSKLLTWTGSSLVVWSA | inactive
RIINCDKLSQTTALYIKTFM | inactive
RIQCLCVDVLSVMLSVHA | 1.48 ± 0.11
RISVAGLCASEAVAKCLRRG | inactive
RIVDGFLTW | inactive
RIVFSKVMLVEIRTSLWFCT | inactive
RIVIPMVWEYIFSDFVFG | 1.72 ± 0.088
RIVSRWCDNLNHTDCECCVC | inactive
RKCLMMCDYCITLNM | 2.29 ± 0.06
RKEVLYSYRNHLK | inactive
RKFDPSISGSCWNVGISCVV | inactive
RKGFKAIGY | inactive
RKKLEGVFVRLFQFANPIVG | inactive
RKLSAHLQEGD | inactive
RKPHMTL | inactive
RKSGYFP | inactive

Substance | amyloid nucleation score
RKSGYYLIVMRALNREPTPV | -0.363 ± 1.4
RKTSSY | -0.725 ± 0.84
RKVGRLIPFHFCSN | inactive
RKVKILWNDTLTFRT | inactive
RLARADNILLGRNSVSSSVK | inactive
RLFLGVGCMS | inactive
RLFLINSGASDPNSQMSNLR | inactive
RLGCCGVSSEWVCRKYLLRG | inactive
RLGWFYRNIYLLTVEVGRGR | inactive
RLICLMGSLW | 1.34 ± 0.081
RLIIYSFARSQL | inactive
RLIWFE | inactive
RLKLMRP | inactive
RLKMGLSN | -0.846 ± 0.8
RLLKFASYFVKDSRYNPDCF | inactive
RLMLLVTPAISFMSF | inactive
RLPLLTTKSGMSDTYSAP | inactive
RLRLGAAGRQGSEVVYNWSM | 1.23 ± 0.12
RLSIAASFLSLFRYVDFNSL | inactive
